Source: article PMC7948490 (2020)

B1: Myosin-1C35-ΔTH1 isoform C35 lacking TH1 domain (protein)
chain: MALQVELVPTGEIIRVVHPHRPCKLALGSDGVRVTMESALTARDRVGVQDFVLLENFTSEAAFIENLRRRFRENLIYTYIGPVLVSVNPYRDLQIYSRQHMERYRGVSFYEVPPHLFAVADTVYRALRTERRDQAVMISGESGAGKTEATKRLLQFYAETCPAPERGGAVRDRLLQSNPVLEAFGNAKTLRNDNSSRFGKYMDVQFDFKGAPVGGHILSYLLEKSRVVHQNHGERNFHIFYQLLEGGEEETLRRLGLERNPQSYLYLVKGQCAKVSSINDKSDWKVVRKALTVIDFTEDEVEDLLSIVASVLHLGNIHFAANEESNAQVTTENQLKYLTRLLSVEGSTLREALTHRKIIAKGEELLSPLNLEQAAYARDALAKAVYSRTFTWLVGKINRSLASKDVESPSWRSTTVLGLLDIYGFEVFQHNSFEQFCINYCNEKLQQLFIELTLKSEQEEYEAEGIAWEPVQYFNNKIICDLVEEKFKGIISILDEECLRPGEATDLTFLEKLEDTVKHHPHFLTHKLADQRTRKSLGRGEFRLLHYAGEVTYSVTGFLDKNNDLLFRNLKETMCSSKNPIMSQCFDRSELSDKKRPETVATQFKMSLLQLVEILQSKEPAYVRCIKPNDAKQPGRFDEVLIRHQVKYLGLLENLRVRRAGFAYRRKYEAFLQRYKSLCPETWPTWAGRPQDGVAVLVRHLGYKPEEYKMGRTKIFIRFPKTLFATEDALEVRRQSLATKIQAAWRGFHWRQKFLRVKRSAICIQSWWRGTLGRRKAAKRKWAAQTIRRLIRGFVLRHAPRCPENAFFLDHVRTSFLLNLRRQLPQNVLDTSWPTPPPALREASELLRELCIKNMVWKYCRSISPEWKQQLQQKAVASEIFKGK
B2: Myosin-1C0-ΔTH1 isoform C0 lacking TH1 domain (protein)
chain: MESALTARDRVGVQDFVLLENFTSEAAFIENLRRRFRENLIYTYIGPVLVSVNPYRDLQIYSRQHMERYRGVSFYEVPPHLFAVADTVYRALRTERRDQAVMISGESGAGKTEATKRLLQFYAETCPAPERGGAVRDRLLQSNPVLEAFGNAKTLRNDNSSRFGKYMDVQFDFKGAPVGGHILSYLLEKSRVVHQNHGERNFHIFYQLLEGGEEETLRRLGLERNPQSYLYLVKGQCAKVSSINDKSDWKVVRKALTVIDFTEDEVEDLLSIVASVLHLGNIHFAANEESNAQVTTENQLKYLTRLLSVEGSTLREALTHRKIIAKGEELLSPLNLEQAAYARDALAKAVYSRTFTWLVGKINRSLASKDVESPSWRSTTVLGLLDIYGFEVFQHNSFEQFCINYCNEKLQQLFIELTLKSEQEEYEAEGIAWEPVQYFNNKIICDLVEEKFKGIISILDEECLRPGEATDLTFLEKLEDTVKHHPHFLTHKLADQRTRKSLGRGEFRLLHYAGEVTYSVTGFLDKNNDLLFRNLKETMCSSKNPIMSQCFDRSELSDKKRPETVATQFKMSLLQLVEILQSKEPAYVRCIKPNDAKQPGRFDEVLIRHQVKYLGLLENLRVRRAGFAYRRKYEAFLQRYKSLCPETWPTWAGRPQDGVAVLVRHLGYKPEEYKMGRTKIFIRFPKTLFATEDALEVRRQSLATKIQAAWRGFHWRQKFLRVKRSAICIQSWWRGTLGRRKAAKRKWAAQTIRRLIRGFVLRHAPRCPENAFFLDHVRTSFLLNLRRQLPQNVLDTSWPTPPPALREASELLRELCIKNMVWKYCRSISPEWKQQLQQKAVASEIFKGK

Columns and labels:
[1] = target: T1, F-actin (alpha-actin, skeletal muscle) (Gallus gallus, UniProt P68139); experiment: kinetic global fit (KinTek Explorer)
[2] = target: T1, F-actin (alpha-actin, skeletal muscle); experiment: kinetic global fit (KinTek Explorer), no nucleotide
[3] = target: T1, F-actin (alpha-actin, skeletal muscle); experiment: stopped-flow pyrene-actin fluorescence (k-A/k+A), 20 °C, no nucleotide

Row | Binder | Kd [1] [nM] | Kd [2] [nM] | Kd [3] [nM]
1 | B1 | 22200 | 16.3 | 16.9
2 | B2 | 10800 | 13 | 13.7
